One experiment deals with PD-1 (Homo sapiens (Human), UniProt Q15116 25-170). Put plainly: specificity ELISA on coated antigens, OD. The method, then: (§1) In the ELISA assay, the testing antibodies, isotype control antibodies were tested binding to 10 different target antigens including Factor VIII, FGFR-ECD, PD-1, CTLA-4.ECD, VEGF, HER3.ECD, OX40.ECD, 4-1BB.ECD, CD22.ECD, CD3e.ECD. A 96-well plate was coated with the individual antigens (2 μg/mL) at 4° C. overnight. After 1 hour blocking with 2% BSA in PBS, wash plate 3 times with 300 μL PBST. Testing antibodies, as well as isotype control antibodies were diluted to 10 μg/mL in PBS containing 2% BSA, then were added to the plate and incubated at room temperature for 2 hours. After 3 times washing with 300 μL PBST, HRP-conjugated goat anti-human IgG antibody (1:5000 diluted in 2% BSA) was added to the plate and incubated at room temperature for 1 hours. Finally, the plates were washed six times with 300 μL PBST. The color was developed by dispensing 100 μL of TMB substrate for 12 min, and then stopped by 100 μL of 2M HCl.
Chain of PD-1 (Q15116 25-170 limits assumed): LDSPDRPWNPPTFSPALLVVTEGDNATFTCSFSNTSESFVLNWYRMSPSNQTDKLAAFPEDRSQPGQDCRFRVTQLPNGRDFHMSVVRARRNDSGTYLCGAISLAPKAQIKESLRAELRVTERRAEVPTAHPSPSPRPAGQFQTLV
For orientation: An ELISA detects its analyte on a solid surface through an enzyme-linked reagent.

The target of a further experiment is HER3.ECD (Homo sapiens (Human), UniProt P21860 20-643). The experiment is described as follows: specificity ELISA on coated antigens, OD. The method, then: as §1
Chain of HER3.ECD (P21860 20-643 limits assumed): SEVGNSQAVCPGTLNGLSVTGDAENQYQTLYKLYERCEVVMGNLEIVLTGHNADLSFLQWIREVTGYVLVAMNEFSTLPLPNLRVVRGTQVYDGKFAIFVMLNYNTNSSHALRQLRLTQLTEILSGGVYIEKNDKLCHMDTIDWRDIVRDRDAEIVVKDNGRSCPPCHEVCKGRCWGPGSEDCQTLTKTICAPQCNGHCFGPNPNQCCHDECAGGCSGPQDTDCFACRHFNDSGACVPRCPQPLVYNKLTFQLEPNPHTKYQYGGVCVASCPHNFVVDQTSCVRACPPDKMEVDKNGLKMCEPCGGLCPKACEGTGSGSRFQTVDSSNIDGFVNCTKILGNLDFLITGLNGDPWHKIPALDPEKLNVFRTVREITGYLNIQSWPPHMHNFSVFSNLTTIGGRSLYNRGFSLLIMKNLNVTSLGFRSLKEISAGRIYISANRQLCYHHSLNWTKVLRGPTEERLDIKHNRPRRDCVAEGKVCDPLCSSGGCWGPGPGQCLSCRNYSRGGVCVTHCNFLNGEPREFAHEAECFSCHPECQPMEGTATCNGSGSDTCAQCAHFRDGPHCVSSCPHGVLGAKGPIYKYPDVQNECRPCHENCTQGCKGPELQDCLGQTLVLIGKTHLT
The next experiment addresses 4-1BB.ECD (Homo sapiens (Human), UniProt Q07011 24-186). The experiment is described as follows: specificity ELISA on coated antigens, OD. Here is the method:
as §1

The target in the next experiment is CD3e.ECD (Homo sapiens (Human), UniProt P07766 23-126). The experiment is described as follows: specificity ELISA on coated antigens, OD. Here is the method:
as §1

Experiment [1] has as its target T1, full length human CTLA-4 on cells (human, UniProt P16410 36-223).
T1 construct: whole, on cells; also called CTLA-4-expressing cell line
T1 sequence (looked up): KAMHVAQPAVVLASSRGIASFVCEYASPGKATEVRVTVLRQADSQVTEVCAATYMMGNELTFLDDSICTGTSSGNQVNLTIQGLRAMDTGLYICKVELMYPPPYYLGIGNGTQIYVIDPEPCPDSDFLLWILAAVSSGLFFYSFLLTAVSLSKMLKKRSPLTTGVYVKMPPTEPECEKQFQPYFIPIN
The experiment is described as follows: flow cytometry affinity on cells expressing human CTLA-4. The method, then: Briefly, HEK293 cells expressing human CTLA-4 were transferred in to 96-well U-bottom plates (BD) at a density of 5×10⁴ cells/well. Testing antibodies were 1:2-fold serially diluted in PBS with 1% BSA and incubated with cells at 4° C. for 1 hour. After centrifugation at 1500 rpm for 4 min, the supernatant was discarded. The secondary antibody, FITC conjugated goat anti-human IgG Fc (3.2 FITC per IgG, Jackson Immunoresearch Lab), was added to re-suspend cells to final concentration 14 μg/ml, and incubated at 4° C. in the dark for 30 min. The cells were then washed once and re-suspended in PBS with 1% BSA, and analyzed by flow cytometery (BD). Fluorescence intensity was converted to bound molecules/cell based on the quantitative beads (Quantum™ MESF Kits, Bangs Laboratories). KD was calculated using Graphpad Prism5.
The affinity of humanized antibodies binding to cell surface CTLA-4 was measured by flow cytometry method, modified from Benedict's method [Benedict 1997 JIM].
(In general: In flow cytometry, cells or beads pass a laser one at a time.)

For a further experiment, the target named is T2, hCTLA-4.ECD.hFc-Biotin (human, UniProt P16410 36-161, biotinylated (sites not given)).
T2 construct: extracellular domain; also called Biotinylated CTLA-4.ECD.hFc; biotinylated human CTLA4.ECD.hFc; not shown: human Fc tag (hFc)
T2 sequence (looked up): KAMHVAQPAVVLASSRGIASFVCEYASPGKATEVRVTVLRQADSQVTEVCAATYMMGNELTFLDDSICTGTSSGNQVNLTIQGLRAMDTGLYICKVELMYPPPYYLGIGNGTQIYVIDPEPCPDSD
The experiment is described as follows: FACS competition, hCTLA-4.ECD.hFc-Biotin on CD80-expressing CHO cells. Here is the method:
PE conjugated Streptavidin was purchased from eBioscience (Catalog number 12-4317).
Then the mixtures of antibody and CTLA-4 were added to the cells and incubated for 1 hour at 4° C. The cells were washed two times with 200 μL FACS buffer (DPBS containing 1% BSA). Streptavidin PE 1 to 333 diluted in FACS buffer was added to the cells and incubated at 4° C. for 1 hour. Additional washing steps were performed two times with 200 μL FACS buffer followed by centrifugation at 1500 rpm for 4 minutes at 4° C. Finally, the cells were resuspended in 100 μL FACS buffer and fluorescence values were measured by flow cytometry and analyzed by FlowJo.

The next experiment has as its target T3, human CTLA-4.ECD-6×His (human, UniProt P16410 36-161).
T3 construct: extracellular domain; also called WBP316.hCTLA-4.ECD-6×His; hCTLA4-His (WT)
T3 sequence: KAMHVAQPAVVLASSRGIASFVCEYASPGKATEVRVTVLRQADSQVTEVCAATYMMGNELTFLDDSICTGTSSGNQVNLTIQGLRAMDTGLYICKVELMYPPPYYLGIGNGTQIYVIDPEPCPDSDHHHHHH
The experiment is described as follows: SPR, antibody captured on anti-human Fc, CTLA-4.ECD-6×His as analyte, 1:1 fit. Here is the method: (§2) Biacore T200, Series S Sensor Chip CMS, Amine Coupling Kit, and 10×HBS-EP were purchased from GE Healthcare. […] In immobilization step, the activation buffer was prepared by mixing 400 mM EDC and 100 mM NHS immediately prior to injection. The CM5 sensor chip was activated for 420 s with the activation buffer. 30 μg/mL of goat anti-human IgG Fcγ antibody in 10 mM NaAc (pH 4.5) was then injected to Fc1-Fc4 channels for 200 s at a flow rate of 5 μL/min. The chip was deactivated by 1 M ethanolamine-HCl (GE). Then the antibodies were captured on the chip. Briefly, 4 μg/mL antibodies in running buffer (HBS-EP+) was injected individually to Fc3 channel for 30 s at a flow rate of 10 μL/min. […] Regeneration buffer (10 mM Glycine pH 1.5) was injected at 10 μL/min for 30 s following every dissociation phase.
(§3) The binding kinetics of these antibodies were measured using SPR. The antibodies were captured on immobilized anti-human Fc and CTLA-4-ECD at different concentration was injected orderly. The sensorgrams for reference channel and buffer channel were subtracted from the test sensorgrams. The data was used for 1:1 binding analysis on human, monkey and mouse CTLA-4.ECD-6×His.
For orientation: Surface plasmon resonance follows binding to a sensor surface in real time, without labels.

For experiment [2], the target named is T4, cynomolgus monkey CTLA-4 ECD-6×His (cynomolgus monkey).
T4 construct: extracellular domain; Bought; also called cynomoguls monkey CTLA-4.ECD-6×His
The description is as above. Here is the method:
as §2, §3

The text below walks through data of patent publication US20200277377A1 (WUXI BIOLOGICS SHANGHAI, published 2020).

Chain of CD3e.ECD (P07766 23-126 limits assumed): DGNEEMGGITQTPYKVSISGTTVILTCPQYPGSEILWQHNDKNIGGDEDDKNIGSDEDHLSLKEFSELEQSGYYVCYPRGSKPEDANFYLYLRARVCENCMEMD

B1: W3162_1.154.8-z35-uAb.IgG1K (antibody, V domains shown)
VH: QVQLVQSGAEVKKPGSSVKVSCKASGYTFTNYFMNWVRQAPGQGLEWMGRVDPEQGRADYAEKFKKRVTITADKSTSTAYMELSSLRSEDTAVYYCARRAMDNYGFAYWGQGTLVTVSS
VL: EIVLTQSPDFQSVTPKEKVTITCSANSALSYMYWYQQKPDQSPKLWVHGTSNLASGVPSRFSGSGSGTDFTLTINSLEAEDAATYYCHHWSNTQWTFGGGTKVEIK
notes: Humanized; label says IgG1K
For orientation: Kd means the concentration at which binding is half-saturated. As usually defined, the IC50 is the concentration that inhibits the measured activity by half. A word on the koff: it is the rate constant with which the complex falls apart. The kon is the second-order rate constant of association. As for B1, the binding result with PD-1, with HER3.ECD, with 4-1BB.ECD and with CD3e.ECD was “no binding (tested: 10 ug/mL)” in each case. The Kd in experiment [1] was 0.35 nM; with human CTLA-4.ECD-6×His it was 0.0968 nM; in experiment [2], 0.131 nM. In the experiment with hCTLA-4.ECD.hFc-Biotin, this molecule yielded an IC50 of 0.07 nM. In addition, the values for the off-rate (koff) (in the experiment with human CTLA-4.ECD-6×His; in experiment [2]) were 0.000119 s⁻¹ and 0.000122 s⁻¹, respectively. The values for the kon (with human CTLA-4.ECD-6×His; in experiment [2]) were 1.23e+06 M⁻¹ s⁻¹ and 932000 M⁻¹ s⁻¹, respectively.

B2: W3162-1.146.19-z12-uAb.IgG1K (antibody, V domains shown)
VH: QVQLQESGPGLVKPSETLSLTCSVTYHTITSGYDWTWIRKPPGKGMEWIGYISYSGNTNYNPSLKSRVTISRDTSKNQFFLKLSSVTAADTAVYYCASMMVPHYYVMDAWGQGTLVTVSS
VL: DIVMTQTPLSLSVTPGQPASISCRSSQSLLNSDGNTYLYWYLQKPGQSPQLLIYLVSKLGSGVPNRFSGSGSGTDFTLKISRVEAEDVGVYYCVQGTHDPWTFGGGTKVEIK
notes: Humanized; label says IgG1K
As to B2, the binding result in the experiment with PD-1, with HER3.ECD, in the experiment with 4-1BB.ECD and in the experiment with CD3e.ECD was “no binding (tested: 10 ug/mL)” throughout. The Kd in experiment [1] stood at 5 nM; with human CTLA-4.ECD-6×His, 0.477 nM; in experiment [2] it was 1.92 nM. For the same molecule, the IC50 with hCTLA-4.ECD.hFc-Biotin is 6.6 nM. Further, the figures for the dissociation rate constant (koff) (with human CTLA-4.ECD-6×His; in experiment [2]) were 9.82e-05 s⁻¹ and 0.000331 s⁻¹, respectively. Besides, the figures for the kon (with human CTLA-4.ECD-6×His; in experiment [2]) were 206000 M⁻¹ s⁻¹ and 173000 M⁻¹ s⁻¹, respectively.
